Measurements published in patent US20040038398A1.

Experiments:
[1] = target: CD2 antigen on human peripheral blood CD14+ myeloid cells / primary dendritic cells (and CD3+ T cells) (human) (UniProt P06729); test: cell-based or functional assay
[2] = target: CD2 antigen on human peripheral blood CD14+ myeloid cells / primary dendritic cells (and CD3+ T cells) (human) (UniProt P06729); test: flow cytometry, staining of enriched human CD14+ myeloid cells
[3] = target: CD2 antigen on human peripheral blood CD14+ myeloid cells / primary dendritic cells (and CD3+ T cells) (human) (UniProt P06729); test: flow cytometry, anti-T113 staining after 30 min pre-incubation with anti-T112, 4 C, Mg++/Ca++-free medium

UniProt P06729, sequence (P06729 25-351): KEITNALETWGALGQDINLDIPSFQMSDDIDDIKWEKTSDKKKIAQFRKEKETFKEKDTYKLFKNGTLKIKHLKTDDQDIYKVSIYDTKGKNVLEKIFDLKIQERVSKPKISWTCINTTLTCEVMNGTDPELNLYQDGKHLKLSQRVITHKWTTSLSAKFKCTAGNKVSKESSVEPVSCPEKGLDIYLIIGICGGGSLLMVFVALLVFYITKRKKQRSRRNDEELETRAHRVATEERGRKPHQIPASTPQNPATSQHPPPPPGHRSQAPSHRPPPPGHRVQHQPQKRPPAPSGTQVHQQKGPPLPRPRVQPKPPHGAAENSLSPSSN

Substance “CD58 expressed on transfected CHO cells (CHO-58) (from UniProt P19256 29-250) (ligand)” has an IL-1β in DC/CHO-58 cocultures compared with DC/CHO-NEO [1] of 2 fold, an IL-12 in DC/CHO-58 cocultures compared with DC/CHO-NEO [1] of 26 fold and a level of HLA-DR on primary dendritic cells cocultured with CHO-58 [1] greater than 2.5 fold.
In the case of anti-T111 monoclonal antibody, the IL-1β release, monocyte-derived dendritic cells against primary dendritic cells [1] is reported as 75 fold, the IL-12 release, monocyte-derived dendritic cells against primary dendritic cells [1] is reported as 100 fold and the allogeneic naive CD4 T cell proliferation induced by antibody-pulsed primary dendritic cells ([3H]thymidine) [1] is reported as 2.5 fold. The percent of CD14+ Mx on which CD2 was identified [2] was 30%.
anti-T112 monoclonal antibody showed a percent of CD14+ Mx on which CD2 was identified [2] of 37%.
For anti-T113 monoclonal antibody, the CD50 MFI of primary dendritic cells, after CD2 engagement [1] was 90 MFI, the CD50 MFI of primary dendritic cells, control [1] was 148 MFI and the HLA-DQ level on primary dendritic cells (anti-T113 added to anti-T112-enriched cells) [1] was 9 fold. It also gave an HLA-DR level on primary dendritic cells (anti-T113 added to anti-T112-enriched cells) [1] of 2 fold, an MFI of CD50^hi (so in the source) primary dendritic cells [1] of 53% and a [Ca++]i in CD3+ T cells above baseline (anti-T112 and anti-T113 cross-linked with goat anti-mouse IgG) [1] of 180%. The high expressing CD86 population of primary dendritic cells (anti-T112/3 pair) [1] was 65%, the increase in [Ca++]i in CD14+ Mx (anti-T113 added after anti-T112) [1] was 69% and the increase in [Ca++]i in CD14+ Mx above baseline (anti-T112 and anti-T113 cross-linked with goat anti-mouse IgG) [1] was 95%. For the same substance, the level of CD40 on primary dendritic cells (anti-T112/3 pair) [1] was 2 fold, the level of CD54 on primary dendritic cells (baseline 14%) [1] was 9 fold and the level of CD80 on primary dendritic cells (anti-T112/3 pair) [1] was 3 fold. For the same substance, the levels of HLA-DR and HLA-DQ on primary dendritic cells (anti-T112/3 pair against control) [1] was 2 to 3 fold, the percent CD50^hi of primary dendritic cells, after CD2 engagement [1] was 76% and the percent CD50^hi of primary dendritic cells, control [1] was 96%. It also gave a percentage of CD50^hi (so in the source) of primary dendritic cells [1] of 21% and a percent of CD14+ Mx that were CD2+ [3] of 20%.
